Test results as given in the Immune Epitope Database (IEDB).

Tests used:
HLA-B*08:01 [1] = assay: IEDB peptide-MHC binding, purified MHC/competitive/fluorescence; ≥ and ≤ were set here for values at or beyond the usual limits of such assays
HLA-A*24:02 [2] = assay: as above
HLA-A*02:01 [3] = assay: as above
HLA-B*07:02 [4] = assay: as above
HLA-A*03:01 [5] = assay: as above; conditions: source organism: Vaccinia virus WR
HLA-B*15:01 [6] = assay: as above
HLA-C*12:03 = assay: IEDB peptide-MHC binding, purified MHC/direct/fluorescence; filed as Kd, often an IC50 or EC50 that approximates it; ≥ and ≤ were set here for values at or beyond the usual limits of such assays
HLA-A*02:01 [7] = assay: IEDB peptide-MHC binding, purified MHC/competitive/fluorescence; filed as Kd, often an IC50 or EC50 that approximates it; ≥ and ≤ were set here for values at or beyond the usual limits of such assays
HLA-A*69:01 [8] = assay: IEDB peptide-MHC binding, purified MHC/direct/fluorescence; filed as Kd, often an IC50 or EC50 that approximates it; ≥ and ≤ were set here for values at or beyond the usual limits of such assays; conditions: source organism: Yellow fever virus 1899/81
HLA-A*11:01 = assay: as above
HLA-B*27:05 = assay: as above
HLA-B*18:01 = assay: as above
HLA-A*29:02 = assay: as above; conditions: source organism: Yellow fever virus 1899/81
HLA-B*57:01 = assay: as above
HLA-C*05:01 = assay: as above
HLA-A*01:01 [9] = assay: as above
HLA-A*31:01 = assay: as above
HLA-B*44:02 = assay: as above
HLA-A*03:01 [10] = assay: as above
HLA-B*15:01 [11] = assay: as above
HLA-B*46:01 = assay: as above
HLA-A*69:01 [12] = assay: IEDB peptide-MHC binding, purified MHC/competitive/fluorescence; filed as Kd, often an IC50 or EC50 that approximates it; ≥ and ≤ were set here for values at or beyond the usual limits of such assays; conditions: source organism: Human immunodeficiency virus 1
HLA-A*02:03 = assay: as above; conditions: source organism: Human immunodeficiency virus 1
HLA-A*02:11 = assay: as above; conditions: source organism: Human immunodeficiency virus 1
HLA-A*02:16 = assay: as above; conditions: source organism: Human immunodeficiency virus 1
HLA-A*02:12 = assay: as above; conditions: source organism: Human immunodeficiency virus 1
HLA-A*02:06 = assay: as above
HLA-A*02:19 = assay: as above; conditions: source organism: Human immunodeficiency virus 1
HLA-C*14:02 = assay: IEDB peptide-MHC binding, purified MHC/direct/fluorescence; filed as Kd, often an IC50 or EC50 that approximates it; ≥ and ≤ were set here for values at or beyond the usual limits of such assays; conditions: source organism: Human immunodeficiency virus 1
HLA-A*24:02 [13] = assay: as above; conditions: source organism: Influenza A virus (A/quail/Hong Kong/FY298/00(H9N2))
HLA-A*02:01 [14] = assay: as above; conditions: source organism: Influenza A virus (A/quail/Hong Kong/FY298/00(H9N2))
HLA-B*07:02 [15] = assay: as above
HLA-A*26:01 = assay: as above; conditions: source organism: Influenza A virus(A/swine/Henan/5/2004(H9N2))
HLA-B*58:01 = assay: as above
HLA-B*08:02 = assay: as above; conditions: source organism: Influenza A virus(A/swine/Henan/5/2004(H9N2))
HLA-C*07:02 = assay: as above; conditions: source organism: Influenza A virus (A/Fort Monmouth/1/1947-mouse adapted(H1N1))
HLA-A*24:03 = assay: as above; conditions: source organism: Influenza A virus (A/quail/Hong Kong/FY298/00(H9N2))
HLA-B*15:17 = assay: IEDB peptide-MHC binding, purified MHC/competitive/fluorescence; filed as Kd, often an IC50 or EC50 that approximates it; ≥ and ≤ were set here for values at or beyond the usual limits of such assays; conditions: source organism: Influenza A virus (A/Fort Monmouth/1/1947-mouse adapted(H1N1))
HLA-B*08:01 [16] = assay: as above; conditions: source organism: Influenza A virus (A/Fort Monmouth/1/1947-mouse adapted(H1N1))
HLA-A*68:02 = assay: as above; conditions: source organism: Influenza A virus (A/Fort Monmouth/1/1947-mouse adapted(H1N1))
HLA-B*15:09 = assay: IEDB peptide-MHC binding, purified MHC/direct/fluorescence; filed as Kd, often an IC50 or EC50 that approximates it; ≥ and ≤ were set here for values at or beyond the usual limits of such assays; conditions: source organism: West Nile virus strain PTRoxo
HLA-B*40:01 = assay: as above; conditions: source organism: West Nile virus
HLA-B*48:01 = assay: as above; conditions: source organism: West Nile virus
HLA-A*01:01 [17] = assay: IEDB peptide-MHC binding, purified MHC/competitive/fluorescence; filed as Kd, often an IC50 or EC50 that approximates it; ≥ and ≤ were set here for values at or beyond the usual limits of such assays; conditions: source organism: Influenza A virus (A/Harbin/1/1988(H1N2))
[18] = source organism: Vaccinia virus WR
[19] = source organism: Vaccinia virus Copenhagen
[20] = source organism: Zaire ebolavirus
[21] = source organism: Influenza A virus (A/Hong Kong/532/1997(H5N1))
[22] = source organism: Yellow fever virus 1899/81
[23] = source organism: Human immunodeficiency virus 1
[24] = source organism: Influenza A virus (A/quail/Hong Kong/FY298/00(H9N2))
[25] = source organism: West Nile virus

RLPKRSVML was tested, and the IC50 (HLA-B*08:01 [1]; [18]) was 15.2 µM, the IC50 (HLA-A*24:02 [2]; [18]) was 52.1 nM and the IC50 (HLA-A*02:01 [3]; [18]) was 2.65 µM. It also gave an IC50 (HLA-B*07:02 [4]; [18]) of 7.67 µM, an IC50 (HLA-A*03:01 [5]) of 34.1 µM and an IC50 (HLA-B*15:01 [6]; [18]) of 12.7 µM.
ARKHHTKID gave an IC50 (HLA-B*08:01 [1]; source organism: Variola virus) of 41.7 µM and an IC50 (HLA-A*24:02 [2]; source organism: Variola virus) of 25 nM.
LAKAIITPI was tested, and the IC50 (HLA-B*08:01 [1]; [19]) was no less than 138 µM, the IC50 (HLA-A*24:02 [2]; [19]) was 6280 nM and the IC50 (HLA-A*02:01 [3]; [19]) was 13.7 µM. For the same sequence, the IC50 (HLA-B*07:02 [4]; [19]) was 56.1 µM and the IC50 (HLA-B*15:01 [6]; [19]) was 24.5 µM.
In the case of IFRLMRTNF, the IC50 (HLA-B*08:01 [1]; [20]) is reported as 55.2 µM, the IC50 (HLA-A*24:02 [2]; [20]) is reported as 39.8 nM and the IC50 (HLA-B*07:02 [4]; [20]) is reported as 9.03 µM. The IC50 (HLA-B*15:01 [6]; [20]) was 2.18 µM.
With YLMAWKQVL the Kd (HLA-C*12:03; [21]) was 22 nM and the Kd (HLA-A*02:01 [7]; [21]) was 0.4 nM.
RADEINAIL showed a Kd (HLA-A*69:01 [8]) of no less than 20 µM, a Kd (HLA-A*11:01; [22]) of no less than 20 µM and a Kd (HLA-B*27:05; [22]) of no less than 20 µM. It also gave a Kd (HLA-B*18:01; [22]) of no less than 20 µM, a Kd (HLA-A*29:02) of no less than 20 µM and a Kd (HLA-B*57:01; [22]) of no less than 20 µM. For the same sequence, the Kd (HLA-C*05:01; [22]) was no more than 1 nM, the Kd (HLA-A*01:01 [9]; [22]) was no less than 20 µM and the Kd (HLA-A*31:01; [22]) was no less than 20 µM. It also gave a Kd (HLA-B*44:02; [22]) of no less than 20 µM, a Kd (HLA-A*03:01 [10]; [22]) of no less than 20 µM and a Kd (HLA-B*15:01 [11]; [22]) of no less than 20 µM. For the same sequence, the Kd (HLA-B*46:01; [22]) was no less than 20 µM.
For FPQLSAIAL, the IC50 (HLA-B*08:01 [1]; [20]) was no less than 129 µM, the IC50 (HLA-A*24:02 [2]; [20]) was 17800 nM and the IC50 (HLA-A*02:01 [3]; [20]) was no less than 179 µM. For the same sequence, the IC50 (HLA-B*07:02 [4]; [20]) was 13.6 µM.
SLADQLIHL gave a Kd (HLA-A*69:01 [12]) of 277 nM, a Kd (HLA-A*02:03) of 0.86 nM and a Kd (HLA-A*02:01 [7]; [23]) of 42.5 nM. The Kd (HLA-A*02:11) was 0.145 nM, the Kd (HLA-A*02:16) was 0.6 nM and the Kd (HLA-A*02:12) was 2.85 nM. The Kd (HLA-A*02:06; [23]) was no more than 0.1 nM and the Kd (HLA-A*02:19) was 4.67 nM.
For AFHHVAREL, the Kd (HLA-C*14:02) was no more than 1 nM.
Work on SYLIRALTL yielded a Kd (HLA-A*11:01; [24]) of no less than 20 µM, a Kd (HLA-A*24:02 [13]) of 3.9 nM and a Kd (HLA-B*27:05; [24]) of no less than 20 µM. The Kd (HLA-A*02:01 [14]) was no less than 20 µM, the Kd (HLA-B*18:01; [24]) was no less than 20 µM and the Kd (HLA-B*07:02 [15]; [24]) was no less than 20 µM. The Kd (HLA-A*26:01) was no less than 20 µM, the Kd (HLA-B*57:01; [24]) was no less than 20 µM and the Kd (HLA-A*01:01 [9]; [24]) was no less than 20 µM. It also gave a Kd (HLA-B*58:01; [24]) of no less than 20 µM, a Kd (HLA-A*31:01; [24]) of no less than 20 µM and a Kd (HLA-B*08:02) of no less than 20 µM. For the same sequence, the Kd (HLA-A*03:01 [10]; [24]) was no less than 20 µM, the Kd (HLA-B*15:01 [11]; [24]) was no less than 20 µM and the Kd (HLA-C*07:02) was 55 nM. It also gave a Kd (HLA-A*24:03) of no more than 1 nM, a Kd (HLA-B*15:17) of 196 nM and a Kd (HLA-B*08:01 [16]) of 1720 nM. The Kd (HLA-A*02:06; source organism: Influenza A virus (A/Fort Monmouth/1/1947-mouse adapted(H1N1))) was 1410 nM and the Kd (HLA-A*68:02) was 1190 nM.
With FVDVGVSAL the Kd (HLA-A*11:01; [25]) was no less than 20 µM, the Kd (HLA-C*12:03; [25]) was no less than 20000 nM and the Kd (HLA-B*27:05; [25]) was no less than 20 µM. It also gave a Kd (HLA-B*15:09) of 2200 nM, a Kd (HLA-B*18:01; [25]) of no less than 20 µM and a Kd (HLA-B*07:02 [15]; [25]) of no less than 20 µM. It also gave a Kd (HLA-B*40:01) of no less than 20 µM, a Kd (HLA-B*57:01; [25]) of no less than 20 µM and a Kd (HLA-C*05:01; [25]) of no more than 1 nM. For the same sequence, the Kd (HLA-B*58:01; [25]) was no less than 20 µM, the Kd (HLA-A*31:01; [25]) was no less than 20 µM and the Kd (HLA-B*44:02; [25]) was no less than 20 µM. For the same sequence, the Kd (HLA-A*03:01 [10]; [25]) was no less than 20 µM, the Kd (HLA-B*48:01) was no less than 20 µM and the Kd (HLA-B*15:01 [11]; [25]) was no less than 20 µM. It also gave a Kd (HLA-B*46:01; [25]) of no less than 20 µM.
For YVSVVSSHY, the Kd (HLA-A*01:01 [17]) was 549 nM.
